Read-outs that look alike come from different tables or passages of the source.
What was measured:
SARS-COV-2 RBD-MMH [1] = molecular target: SARS-COV-2 RBD-MMH (SARS-CoV-2); test: SPR 37C, run with dissociation at pH 7.4
SARS-COV-2 RBD-MMH [2] = molecular target: SARS-COV-2 RBD-MMH (SARS-CoV-2); test: SPR 37C
SARS-COV-2 RBD-MMH [3] = molecular target: SARS-COV-2 RBD-MMH (SARS-CoV-2); test: SPR 37C, run with dissociation at pH 5.0
[4] = molecular target: T1, human FcγR3a 176Val allotype receptor (human, UniProt P08637 17-254); test: cell-based or functional assay
[5] = molecular target: T1, human FcγR3a 176Val allotype receptor; test: cell-based or functional assay; remark: listed apart in the source

Binder	RBD.mmh Bound at pH 7.4 (RU) (SARS-COV-2 RBD-MMH [1])	koff (SARS-COV-2 RBD-MMH [1]) [s⁻¹]	t½ Ratio of pH 7.4 to pH 5.0 (SARS-COV-2 RBD-MMH [2])	RBD.mmh Bound at pH 7.4 (RU) (SARS-COV-2 RBD-MMH [3])	koff (SARS-COV-2 RBD-MMH [3]) [s⁻¹]	t½ (SARS-COV-2 RBD-MMH [3]) [min]	EC50 (M), Jurkat CD20 [4] [M]	EC50 (M), Jurkat/CD20/spike [4] [M]	Fold induction, Jurkat CD20 [4] [fold]	Fold induction, Jurkat/CD20/spike [4] [fold]	EC50 (M), Jurkat/CD20/spike [5] [M]	Fold induction, Jurkat CD20 [5] [fold]	Fold induction, Jurkat/CD20/spike [5] [fold]
mAb14312 (antibody) heavy: not shown light: QSVLTQPPSVSGAPGQRVTISCTGSSSNIGAGDDVHWYQQLPGTAPKLLIYGNSNRPSGVPDRFSGSKSGTSASLAITGLQAEDEADYYCQSYDSSLSGSVVFGGGTKLTVLGQPKAAPSVTLFPPSSEELQANKATLVCLISDFYPGAVTVAWKADSSPVKAGVETTTPSKQSNNKYAASSYLSLTPEQWKSHRSYSCQVTHEGSTVEKTVAPTECS	95.2	0.000859	6.4	96.7	0.00558	2.1	1.84e-08	1.68e-10	2	7.5	–	–	–
mAb14255 (antibody) heavy: not shown light: QSALTQPASVSGSPGQSITISCTGTSSDVGSYNLVSWYQQHPGKAPKLMIYEDSKRPSGVANPFSGSKSGNTASLTISGLQAEDEADYYCSSYAGSSTWVFGGGTKLTVLGQPKAAPSVTLFPPSSEELQANKATLVCLISDFYPGAVTVAWKADSSPVKAGVETTTPSKQSNNKYAASSYLSLTPEQWKSHRSYSCQVTHEGSTVEKTVAPTECS	97.5	0.00493	1.3	94.1	0.00635	1.8	–	1.67e-10	1	9.5	1.88e-10	1.1	3.2
mAb14315 (antibody) heavy: not shown light: EIVLTQSPGTLSLSPGERATLSCRASQSVSSNYLAWYQQKPGQAPRLLIYGASSRATGIPERFSGSGSGTDFTLTISRLEPEDFAVYYCQQYGSSLYTFGQGTKLEIKRTVAAPSVFIFPPSDEQLKSGTASVVCLLNNFYPREAKVQWKVDNALQSGNSQESVTEQDSKDSTYSLSSTLTLSKADYEKHKVYACEVTHQGLSSPVTKSFNRGEC	83.3	0.00098	0.7	101	0.0007	16.5	–	6.24e-11	1.1	9.3	–	–	–
mAb14284 (antibody, also called REGN14284) heavy: not shown light: QSALTQPASVSGSPGQSITISCTGTSSDLGVFNYVSWYQQHPGKAPKLMIYEVTNRPSGVSNRFSGSKSGNTASLTISGLQAEDEADYYCSSYTTSSTVFGGGTKLTVLGQPKAAPSVTLFPPSSEELQANKATLVCLISDFYPGAVTVAWKADSSPVKAGVETTTPSKQSNNKYAASSYLSLTPEQWKSHRSYSCQVTHEGSTVEKTVAPTECS	147	0.000624	1.2	159	0.000736	15.7	–	1.56e-10	1.1	9	–	–	–
mAb14282 (antibody) heavy: not shown light: QSALTQPASVSGSPGQSITISCTGTSSDVGSYNLVSWYQQHPGKAPKLMIYELTKRPSGVSNRFSGSKSGNTASLTISGLQAEDEADYYCSSYRGSVTDVVFGGGTKLTVLGQPKAAPSVTLFPPSSEELQANKATLVCLISDFYPGAVTVAWKADSSPVKAGVETTTPSKQSNNKYAASSYLSLTPEQWKSHRSYSCQVTHEGSTVEKTVAPTECS	73.5	0.0126	0.5	62.4	0.00671	1.7	–	2.57e-10	1.1	10.7	–	–	–
mAb14281 (antibody) heavy: not shown light: SSELTQDPAVSVALGQTVRITCQGDSLRSYYASWYQQKPGQAPVLVIYDKNNRPSGIPDRFSGSSSGNTASLTITGAQAEDEADYYCNSRDSSRNHLVVFGGGTKLTVLGQPKAAPSVTLFPPSSEELQANKATLVCLISDFYPGAVTVAWKADSSPVKAGVETTTPSKQSNNKYAASSYLSLTPEQWKSHRSYSCQVTHEGSTVEKTVAPTECS	83.5	0.00659	1.8	51.7	0.0117	1	–	1.65e-10	1.1	10.3	–	–	–
mAb14294 (antibody) heavy: not shown light: EIVLTQSPGTLSLSPGERATLSCRASQSVSSSQLAWYQQKPGQAPRLLIYGASSRATGIPDRFSGSGSGTDFTLTISRLEPEDFAVYYCQQYDSFGQGTKLEIKRTVAAPSVFIFPPSDEQLKSGTASVVCLLNNFYPREAKVQWKVDNALQSGNSQESVTEQDSKDSTYSLSSTLTLSKADYEKHKVYACEVTHQGLSSPVTKSFNRGEC	83.2	0.00092	0.5	97.6	0.000452	25.5	–	6.04e-11	1	10.5	–	–	–
mAb14283 (antibody) heavy: not shown light: QSALTQPASVSGSPGQSTTISCTGTSSDVGGYNYVSWYQQYPGKAPKLMIYDVTNRPSGVSHRFSGSKSGNTASLTISGLQAEDEADYYCSSYTSSSTVIFGGGTKLTVLGQPKAAPSVTLFPPSSEELQANKATLVCLISDFYPGAVTVAWKADSSPVKAGVETTTPSKQSNNKYAASSYLSLTPEQWKSHRSYSCQVTHEGSTVEKTVAPTECS	87.7	0.00169	3	91.7	0.00512	2.3	–	1.39e-10	1.1	9.1	–	–	–
mAb14286 (antibody) heavy: not shown light: QSALTQPASVSGYPGQSITISCTGTSSDVGGYNYVSWYQQHPGKAPKLMIFDVSNRPSGVSNRFSGSKSGNTASLTFSGLQAEDEADYYCSSYTSSSTLVFGGGTKLTVLGQPKAAPSVTLFPPSSEELQANKATLVCLISDFYPGAVTVAWKADSSPVKAGVETTTPSKQSNNKYAASSYLSLTPEQWKSHRSYSCQVTHEGSTVEKTVAPTECS	84.3	0.00968	0.7	82.4	0.00664	1.7	–	2.04e-10	1	11	–	–	–
mAb14289 (antibody) heavy: not shown light: EIVLTQSPGTLSLSPGERATLSCRASQSVSSYLAWYQQKPGQAPRLLIHGASSRATGIPDRFSGSGSGTDFTLTISRLEPEDFAVYYCQQYGSSFLTFGGGTKVEIKRTVAAPSVFIFPPSDEQLKSGTASVVCLLNNFYPREAKVQWKVDNALQSGNSQESVTEQDSKDSTYSLSSTLTLSKADYEKHKVYACEVTHQGLSSPVTKSFNRGEC	86.1	0.00185	2.5	89.3	0.0046	2.5	–	1.3e-10	1	6.3	–	–	–

— US20260069689A1 (Regeneron, published 2026)
